Experimental data from publication PMC2132943.

Biological target: CCR5 chemokine receptor (human) (UniProt P51681)
Experiment: cross-linking

Chain of CCR5 chemokine receptor, P51681 1-352 (receptor; other documents disagree on this pair) (P51681 whole entry): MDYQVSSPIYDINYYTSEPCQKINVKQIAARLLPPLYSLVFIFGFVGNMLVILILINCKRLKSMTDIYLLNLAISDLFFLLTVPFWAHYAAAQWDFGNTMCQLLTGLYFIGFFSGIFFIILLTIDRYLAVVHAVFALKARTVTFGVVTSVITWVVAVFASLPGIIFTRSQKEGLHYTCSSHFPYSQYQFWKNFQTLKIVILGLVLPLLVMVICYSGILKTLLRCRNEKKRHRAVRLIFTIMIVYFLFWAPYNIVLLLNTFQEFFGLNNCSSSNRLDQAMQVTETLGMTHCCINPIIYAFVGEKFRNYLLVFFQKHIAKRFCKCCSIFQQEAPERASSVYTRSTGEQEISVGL

Substance “CCR5 chemokine receptor, P51681 1-352 (receptor; other documents disagree on this pair)” has a stoichiometry N of 2.
